The source of these data is US11371013B2, “Culture medium composition and method of culturing cell or tissue using thereof” (Nissan Chemical Industries, Ltd., priority 2012, dated 2022).

Data set [1] in a line: Viscosity measurement of medium composition (E type viscometer). It counts as physicochemical. The settings on record: 37°C, 100 rpm. On the procedure:
The viscosity of the liquid containing the structure can be measured, for example, by the method described in the below-mentioned Examples. Specifically, it can be measured under 37° C. conditions and using an E-type viscosity meter (manufactured by Toki Sangyo Co., Ltd., TV-22 type viscosity meter, model: TVE-22L, corn roter: standard roter 1° 34′×R24, rotation number 100 rpm).
(§1) This aqueous solution was allowed to cool to room temperature with stirring, and sterilized at 121° C. for 20 min in an autoclave. […] The viscosity of the medium compositions was measured using an E type viscometer (manufactured by Toki Sangyo Co., Ltd., Viscometer TVE-22L, standard roter 1° 34′×R24) under 37° C. condition at 100 rpm for 5 min.
The medium compositions prepared above were subjected to a suspension test of HeLa cell spheres and a viscosity measurement, in the same manner as with the deacylated gellan gum-containing medium. The viscosity of 1.0% (w/v) methylcellulose was measured at 50 rpm due to the measurement range of the apparatus.
In the same manner as in Experimental Example 2, spheres of HeLa cells were formed, and several tens of the spheres were added to each medium (1 mL) prepared above, the mixture was stood still at 37° C. for 1 hr, and the suspended state of the sphere cells was visually observed. […] Furthermore, it was confirmed that addition of an equal amount of the medium to the cell suspension and centrifugation (300 to 400G, 5 min) thereof result in sedimentation and recovery of the spheres of HeLa cells. The suspended state of the spheres of HeLa cells cultured in the medium composition of the present invention is each shown in FIG. 11.
(§2) The final concentration of polysaccharide was set to 0.1% (w/v) for xanthan gum, sodium alginate, locust bean gum, 0.2% (w/v) for methylcellulose, and 0.05% (w/v) for K-carageenan and diutan gum. The state of each medium composition and the viscosity measured by a method similar to that in Analysis Example 1 are shown in Tables 11-16.

Data set [2] is described as follows: State of medium composition (liquid/solid). It counts as physicochemical. On the procedure: as §1
DMEM/F-12 medium (manufactured by Aldrich, 100 mL) was placed in a 200 mL pear-shaped flask, and methylcellulose (M0387, manufactured by Aldrich, […]) was added. The mixture was stirred while cooling in an ice bath to dissolve methylcellulose. Using this solution, medium compositions added with the aqueous methylcellulose solution at a final concentration of 0.1, 0.3, 0.6 or 1.0% (w/v) were prepared.
A 10-fold concentration of DMEM/F-12 medium (manufactured by Aldrich, 1 mL), a buffer for reconstitution (manufactured by Nitta Gelatin Inc., 1 mL) and pure water (1.5 mL) were added to 0.3% cell matrix type I-A (manufactured by Nitta Gelatin Inc., 6.5 mL), and the mixture was stirred in an ice to give a 0.2% collagen-containing medium. Similarly, medium compositions added with collagen at a final concentration of 0.01, 0.05, 0.1 or 0.2% (w/v) were prepared.
as §2

Data set [3] concerns HepG2 cells. Put plainly: Toxicity test of compound to hepatocytes: number of viable cells (Cell Titer-Glo). Particulars: 1 day, DAG 0.015%, no addition = 1. It counts as cell-based, human. On the procedure: (§3) This aqueous solution was sterilized at 121° C. for 20 min in an autoclave. On the other hand, HepG2 cells was mixed with DMEM medium (manufactured by WAKO) at 100000 cells/mL, and the cell suspension was dispensed to the wells of a 96-well flat bottom ultra low adhesion surface microplate (manufactured by Corning Incorporated, #3474) at 100 μL/well. […] Successively, this plate was cultured by being stood still in a CO2 incubator (37° C., 5% CO2) for 1 day.
The culture medium (50 μL) after culturing for 1 day was dispensed to a 96-well titer plate (manufactured by Corning Incorporated), to this culture medium was added a Cell Titer-Glo (registered trade mark) reagent (manufactured by Promega, 50 μL), and the mixture was incubated at room temperature for 10 min. The luminescence intensity was measured by a multiplate reader is (manufactured by Molecular Devices, FlexStation3) to measure the number of viable cells.
A general note: Cellular ATP, detected with luciferase, serves as a proxy for viable cell number.

The test system of data set [4] is HepG2 cells. The data set can be described thus: Toxicity test of compound to hepatocytes: lactic acid dehydrogenase (LDH) activity measurement. In kind it is cell-based, human. The settings on record: 1 day, DAG 0.015%. On the procedure: as §3
To the culture medium (100 μL) after culturing for 1 day was added DMEM medium (manufactured by WAKO, 100 μL), and the plate was centrifuged by 440G for 15 min. The supernatant (100 μL) was dispensed to a 96-well titer plate (manufactured by Corning Incorporated), a reaction mixture (100 μL) in a cytotoxicity detection kit (manufactured by Roche Applied Science) was added, and the mixture was stood under shading at room temperature for 30 min. Successively, according to the protocol of the above-mentioned kit, the absorbance at 490 nm (reference; 600 nm) was measured by an absorbance spectrometer (manufactured by Molecular Devices, SPECTRA MAX 190), whereby the rate of the disordered cell, that is, cell disorder rate (%), was measured.

With collagen, the viscosity in data set [1] (0.01% (w/v) in DMEM/F-12) is recorded as 1.18 mPa · s; in data set [1] (0.05% (w/v) in DMEM/F-12), “unmeasurable”; in data set [1] (0.1% (w/v) in DMEM/F-12) it was “unmeasurable”; in data set [1] (0.2% (w/v) in DMEM/F-12) it was “unmeasurable”. In addition, the state result was “liquid” in data set [2] (0.01% (w/v) in DMEM/F-12), “liquid/solid” in data set [2] (0.05% (w/v) in DMEM/F-12), “solid (gel)” in data set [2] (0.1% (w/v) in DMEM/F-12) and “solid (gel)” in data set [2] (0.2% (w/v) in DMEM/F-12).

Consider `Cc1c(C)c2c(c(C)c1O)CCC(C)(COc1ccc(CC3SC(=O)NC3=O)cc1)O2` (stereo not shown) [Troglitazone], for which the relative cell number in data set [3] (20 μM) amounted to 0.68; in data set [3] (40 μM), 0.50; in data set [3] (60 μM) it was 0.48; in data set [3] (100 μM), 0.39. Further, the cell disorder rate in data set [4] (20 μM) was 2.68%; in data set [4] (40 μM), 14.7%; in data set [4] (60 μM) it was 22.5%; in data set [4] (100 μM) it was 60.7%.
